Molecular target: thyroglobulin of normal mice (mouse (endogenous in thyroid tissue)) (UniProt O08710)
Assay: native gel or EMSA

thyroglobulin of normal mice, O08710 21-2766
stoichiometry N: 2
